Measurements taken from publication PMC7894885, “Cyp33 binds AU-rich RNA motifs via an extended interface that competitively disrupts the gene repressive Cyp33-MLL1 interaction in vitro”.

B1: SO-8 (structured_RNA)
RNA: AGAACAAUAAUUACAAAGACUGAGCGUUUUAAAGUCUCCUCAUGUGCCCCC

Key:
MLL1 PHD3 (Homo sapiens) = MLL1 PHD3 (Homo sapiens) (UniProt Q03164); conditions: cited from earlier work
FL-Cyp33 [1] = molecular target: T1, FL-Cyp33 (human, UniProt Q9UNP9 1-301); assay: EMSA; EMSA: SELEX buffer (composition in S2 Table, not in material; physiological salt is 135 mM KCl, 15 mM NaCl) + 10% glycerol, 5 nM RNA, 0.5X TBE 8% PAGE at room temperature; NMR: SELEX buffer + 10% D2O, 25 C; pH not given; conditions: protein: recombinant, 6xHis-thrombin construct for NMR, hairpin (predicted)
T1 sequence (Q9UNP9 whole entry): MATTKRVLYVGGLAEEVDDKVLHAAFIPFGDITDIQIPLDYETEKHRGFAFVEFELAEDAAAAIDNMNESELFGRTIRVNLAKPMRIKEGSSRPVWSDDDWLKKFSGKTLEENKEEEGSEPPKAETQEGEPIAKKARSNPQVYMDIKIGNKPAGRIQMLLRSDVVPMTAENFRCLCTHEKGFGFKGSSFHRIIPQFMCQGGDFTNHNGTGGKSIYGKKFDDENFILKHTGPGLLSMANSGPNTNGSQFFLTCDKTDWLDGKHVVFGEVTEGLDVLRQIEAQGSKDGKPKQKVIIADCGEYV

Cyp33-Cyp = Cyp33-Cyp (human, UniProt Q9UNP9 131-301); assay: NMR 1H-15N HSQC; no significant perturbation; EMSA: SELEX buffer (composition in S2 Table, not in material; physiological salt is 135 mM KCl, 15 mM NaCl) + 10% glycerol, 5 nM RNA, 0.5X TBE 8% PAGE at room temperature; NMR: SELEX buffer + 10% D2O, 25 C; pH not given; conditions: protein: recombinant; tags: C-terminal 6xHis, pET15b; label: 5'-32P (EMSA); hairpin (predicted)
Cyp33-Cyp, sequence (Q9UNP9 131-301): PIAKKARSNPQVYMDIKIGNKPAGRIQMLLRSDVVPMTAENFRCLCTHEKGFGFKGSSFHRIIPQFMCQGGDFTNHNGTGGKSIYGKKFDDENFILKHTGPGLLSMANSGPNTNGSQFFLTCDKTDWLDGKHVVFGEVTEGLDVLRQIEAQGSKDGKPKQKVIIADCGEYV

FL-Cyp33 [2] = molecular target: T1, FL-Cyp33; assay: EMSA; no quantifiable binding by gel shift; EMSA: SELEX buffer (composition in S2 Table, not in material; physiological salt is 135 mM KCl, 15 mM NaCl) + 10% glycerol, 5 nM RNA, 0.5X TBE 8% PAGE at room temperature; NMR: SELEX buffer + 10% D2O, 25 C; pH not given; conditions: protein: recombinant; 6xHis-thrombin construct for NMR; single strand

MLL1 PHD3 (Homo sapiens), sequence (Q03164 1566-1627): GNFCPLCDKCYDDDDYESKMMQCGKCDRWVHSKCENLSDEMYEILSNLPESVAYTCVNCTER

| Molecule | Kd (FL-Cyp33 [1]; label: 5'-32P) [µM] | other results |
| --- | --- | --- |
| Cyp33 RRM (from UniProt Q9UNP9) |  | Kd (MLL1 PHD3 (Homo sapiens)): 1.9 µM |
| UGGCCGGCCCAUCCCGACUGCCGGGUGAUAGACUCUUUAGCGAUUUAUGG (structured_RNA) [SO-4] | 55 ± 10 |  |
| UGGUAGACCAGUGAUAAUUAACCUGAUGCGUGGAGGAUAUCGAGUUGUCC (structured_RNA) [SO-1] |  | binding result (Cyp33-Cyp): no binding; Kd (FL-Cyp33 [1]; label: 5'-32P (EMSA)): 6.6 ± 0.6 µM |
| AAUAAUAA (ssRNA) [AAUAAUAA k-mer] |  | binding result (FL-Cyp33 [2]): no binding |
| UGGUAGACCAGUGAUAAUUAACCUGAUG (structured_RNA) [SO-3] | 32 ± 2.5 |  |
| CAGGUGUGUGACUACGAAAGAACAAUAAUAACACAAAAGAGUCCCGUGCC (structured_RNA) [SO-2] | 21 ± 3.1 |  |
| AAAGUGAGAUAAGGUAACAACAAGAAUAAUAAUAUACCUAUCAUCUUGCC (structured_RNA) [SO-9] | ~90 |  |
| AGGUGCCUCAAAUCCGCAUAAGAAUAACAACAUGGAGUGAAGCGCUCCCC (structured_RNA) [SO-6] | 36 ± 10 |  |
| AGUGAUAAUUAA (ssRNA) [SO-1 single-stranded region 12-mer] |  | binding result (FL-Cyp33 [2]): no binding |
| B1 | 24 ± 13 |  |
